Changes are numbered by the printed parent chain. Names and notes keep the numbering of the source. Values joined by “and” are separate entries in the source; they are usually repeats but may differ in a detail not shown here. Identical values can stand only once. “Also recorded” adds a separate entry of the source. Each block holds one molecule with its values, some of them ahead of it. Non-standard residues stand in square brackets, D forms with d. Residues, ends and D or L forms follow the SMILES beside them. No end group written: not given here. fluorescein‑5‑maleimide = fluorescein-5-maleimide linked to an engineered C-terminal Cys; pT = C[C@@H](OP(=O)(O)O)[C@H](N)C(=O)O; pS = N[C@@H](COP(=O)(O)O)C(=O)O
Legend:
14-3-3-ζ [1] = target: T1, 14-3-3-ζ (Homo sapiens, UniProt P63104); assay: ITC of integrin tail fragments with 14-3-3-ζ; format: binding; conditions: 298 K; for binding to 14-3-3-ζ by ITC, in words: pH 6.5, fragment in cell, 14-3-3-ζ in syringe; for Kd: 20 mM sodium phosphate, 50 mM NaCl pH 6.5, integrin fragment in cell (80–200 μM), 14-3-3-ζ in syringe (0.75–2 mM), one-site model, repeated twice
T1 construct: His10 (cleaved yes); made in house
T1 sequence (P63104 1-245): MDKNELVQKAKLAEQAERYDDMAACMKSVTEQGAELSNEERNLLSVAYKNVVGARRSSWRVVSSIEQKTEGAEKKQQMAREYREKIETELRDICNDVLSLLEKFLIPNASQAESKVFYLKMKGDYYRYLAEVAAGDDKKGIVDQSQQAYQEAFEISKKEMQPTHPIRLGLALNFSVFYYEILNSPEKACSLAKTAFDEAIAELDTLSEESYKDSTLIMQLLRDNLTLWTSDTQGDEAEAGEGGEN
Experimental: Phosphorylated α4 synthetic peptides were purchased from GL Biochem Ltd. (Shanghai). All recombinant proteins and synthetic peptides were prepared in 20 mM sodium phosphate and 50 mM NaCl (pH 6.5), and concentrations were determined by UV absorbance at 280 nm. ITC experiments using a VP-ITC200 instrument (MicroCal) were performed at 298 K as follows: the cell (volume, ~ 200 μl) contained the different integrin tail fragments, and the syringe (volume, ~ 40 μl) contained 14-3-3-ζ. A first injection of 2 μl was followed by 15 injections of 2.5 μl, with a stirring speed of 1500 rpm and a delay between injections of 180 s. A blank titration was performed by injecting 14-3-3-ζ into buffer to take the heat of dilution into account. Experiments were repeated twice for each sample. Raw data were processed and fitted with MicroCal Origin software using a one-site model where the error function is calculated as the sum of the squared deviations between the data and the model curve.

14-3-3-ζ [2] = target: T1, 14-3-3-ζ; assay: 15N-1H HSQC NMR titration of 15N-labeled integrin tails with unlabeled 14-3-3-ζ; format: binding; conditions: 15N-labeled tail 0.1 mM, equimolar unlabeled 14-3-3-ζ; NMR buffer pH 6.5, 25 °C
Experimental: Samples were prepared in NMR buffer (pH 6.5) with 5% D2O, and experiments were performed at 25 °C. Titration experiments were collected on a 500-MHz spectrometer using a water flip-back-embedded gradient enhanced ^15N–^1H HSQC pulse sequence.[46] For the assignment of the α4 and β2 backbone resonances, ^15N–^13C integrin tails of 0.6 mM concentration were used to measure CBCA(CO)NH and CBCANH experiments on a Bruker 500-MHz instrument equipped with a cryogenic probe head. Data were processed using NMRPipe[47] and analyzed with the programs CARA/XEASY[48] or CCPN Analysis.[49]

14-3-3-ζ [3] = target: T1, 14-3-3-ζ; assay: Fluorescence polarization titration of fluorescein-labeled integrin tails with 14-3-3-ζ; format: binding; conditions: fluorescein-labeled tail, 1 μM; ex 485 nm, em 520 nm
Experimental: Fig. 6 Fluorescence polarization and ITC of interactions between integrin tails and 14-3-3-ζ. (a) Fluorescence polarization titrations of fluorescein-labeled β1A, β3 and α4 with 14-3-3-ζ. […] (b–d) ITC sensorgram of an in-cell 200 μM β1A, β2 (same as in Fig. 5a) or β3 samples injected with 2 mM 14-3-3-ζ.
For fluorescence polarization experiments, integrin tails were labeled with fluorescein-5-maleimide (Invitrogen) linked to an engineered C-terminal Cys residue. Measurements were performed using 96-well microplates (Corning) in a PHERAstar FS microplate reader (BMG Labtech). Fluorescein-labeled integrin tails at 1 μM concentration were excited at 485 nm, and polarization was recorded at 520 nm.

14-3-3-ζ [4] = target: T2, 14-3-3-ζ (UniProt P63104 1-245); assay: fluorescence polarisation; fluorescein-labeled integrin tails at 1 μM titrated with increasing amounts of 14-3-3-ζ; 96-well plates; excitation 485 nm, emission 520 nm; single-site model; conditions: both partners purified
T2 construct: 14-3-3 protein zeta; Expressed from the same modified pET16b vector as the integrin tails (His10, 3C site); also called 14-3-3-ζ wt; unlabeled 14-3-3-ζ; not shown: His10, N-terminal, cleaved
T2 sequence: T1 sequence (P63104 1-245)

14-3-3-ζ [5] = target: T2, 14-3-3-ζ; assay: ITC; integrin tail fragment in the cell (80-200 μM), 14-3-3-ζ in the syringe (0.75-2 mM); 298 K; 20 mM sodium phosphate, 50 mM NaCl, pH 6.5; one-site model; conditions: both partners purified
14-3-3-ζ [6] = target: T2, 14-3-3-ζ; assay: NMR titration; 15N-1H HSQC of 15N-labeled integrin tail (0.1 mM) before and after addition of unlabeled 14-3-3-ζ (wt or variant; equimolar, 0.1 mM); 20 mM sodium phosphate, 50 mM NaCl, pH 6.5, 5% D2O, 25 °C; read-out: loss of resonance intensity (I/Io); conditions: both partners purified

Kd (14-3-3-ζ [1]): > 300 µM and 315 µM
Molecule: CC[C@H](C)[C@H](NC(=O)[C@H](COP(=O)(O)O)NC(=O)[C@H](CCCCN)NC(=O)[C@H](Cc1ccc(O)cc1)NC(=O)[C@H](CCC(N)=O)NC(=O)[C@H](CCCNC(=N)N)NC(=O)[C@H](CCCCN)NC(=O)[C@@H](N)Cc1ccccc1)C(=O)N[C@@H](CC(C)C)C(=O)N[C@@H](CCC(N)=O)C(=O)N[C@@H](CCC(=O)O)C(=O)O [α4-11pS] (H-FKRQYK[pS]ILQE-OH)

binding to 14-3-3-ζ by fluorescence polarization, in words (14-3-3-ζ [3]): No binding was detected
Molecule: GS KLLITIHDRKEFAKFEEERARAKWDTANNPLYKEATSTFTNITYRGT [β3 wt, recombinant β3 integrin tail, residues 742–788]
binding to 14-3-3-ζ by ITC, in words (14-3-3-ζ [1]): Only β1A gave a binding curve that could be fitted
change of integrin tail resonances on addition of 14-3-3-ζ, in words (14-3-3-ζ [2]): intensity reduction for several resonances

Kd (14-3-3-ζ [1]): 23.6 ± 2.1 µM
Molecule: CC[C@H](C)[C@H](NC(=O)[C@H](Cc1ccc(O)cc1)NC(=O)[C@H](CO)NC(=O)[C@H](Cc1c[nH]c2ccccc12)NC(=O)[C@H](CO)NC(=O)[C@H](CC(=O)O)NC(=O)[C@H](CCCNC(=N)N)NC(=O)[C@H](CCCNC(=N)N)NC(=O)[C@H](CC(N)=O)NC(=O)[C@H](CCC(=O)O)NC(=O)[C@H](CCC(=O)O)NC(=O)[C@H](CCC(N)=O)NC(=O)[C@H](CC(C)C)NC(=O)[C@@H](NC(=O)[C@H](COP(=O)(O)O)NC(=O)[C@H](CCCCN)NC(=O)[C@H](Cc1ccc(O)cc1)NC(=O)[C@H](CCC(N)=O)NC(=O)[C@H](CCCNC(=N)N)NC(=O)[C@H](CCCCN)NC(=O)[C@H](Cc1ccccc1)NC(=O)[C@H](Cc1ccccc1)NC(=O)CN)[C@@H](C)CC)C(=O)N[C@@H](CC(N)=O)C(=O)N[C@@H](CO)C(=O)N[C@@H](CCCCN)C(=O)N[C@@H](CO)C(=O)N[C@@H](CC(N)=O)C(=O)N[C@@H](CC(=O)O)C(=O)N[C@@H](CC(=O)O)C(=O)O [α4-30pS] (H-GFFKRQYK[pS]ILQEENRRDSWSYINSKSNDD-OH)

binding to 14-3-3-ζ by ITC, in words (14-3-3-ζ [1]): no binding
Molecule: YKSAVpTTVVNP [β1-11pT, synthetic β1 phospho-threonine peptide, residues 783–793]

change of integrin tail resonances on addition of 14-3-3-ζ, in words (14-3-3-ζ [2]): selective broadening of β2 resonances
Molecule: GSKALIHLSDLREYRRFEKEKLKSQWNNDNPLFKSATTTVMNPKFAES [β2 wt, recombinant unphosphorylated β2 integrin tail, residues 724–769]
binding to 14-3-3-ζ by ITC, in words (14-3-3-ζ [1]): only a weak interaction; also recorded: the interaction is weak, in the millimolar range
binding to 14-3-3-ζ by ITC, in words (14-3-3-ζ [1]; listed as β2): Only β1A gave a binding curve that could be fitted

Kd (14-3-3-ζ [5]): > 300 µM
B1: α4-11pS phospho-peptide (peptide)
peptide: FKRQYK[pS]ILQE
notes: integrin α4 cytoplasmic tail, residues 1005-1015 of UniProt P13612; S1011 is phospho-serine; also called short phosphorylated α4 integrin peptide; source: synthetic peptide, bought: GL Biochem Ltd. (Shanghai)

Kd (14-3-3-ζ [5]): ~24 µM
B2: α4-30pS phospho-peptide (peptide)
peptide: GFFKRQYK[pS]ILQEENRRDSWSYINSKSNDD
notes: integrin α4 cytoplasmic tail, residues 1003-1032 of UniProt P13612; S1011 is phospho-serine; also called phosphorylated α4-derived peptide; source: synthetic peptide, bought: GL Biochem Ltd. (Shanghai)

Kd (14-3-3-ζ [5]): 280 ± 40 µM
B4: β1A integrin cytoplasmic tail, wild type (domain or fragment, human (from the printed UniProt entry))
chain: GSKLLMIIHDRREFAKFEKEKMNAKWDTGENPIYKSAVTTVVNPKYEGK
notes: residues from the cloning tag at the N-terminus; integrin β1A cytoplasmic tail, residues 752-798 of UniProt P05556; 15N-labelled for NMR, unlabelled for ITC; also called β1A wt; not shown: His10, N-terminal, cleaved

Kd (14-3-3-ζ [5]): 4 µM
B5: β2-11pT phospho-peptide (peptide)
peptide: PLFKSATTTVM
modifications: also: phospho-threonine at 758
notes: integrin β2 cytoplasmic tail, residues 752-762 of UniProt P05107; T758 is phospho-threonine; also called short β2 phospho-peptide; source: synthetic peptide

Kd (14-3-3-ζ [5]): 8 µM
B7: β2-45pT phospho-peptide (peptide)
peptide: KALIHLSDLREYRRFEKEKLKSQWNNDNPLFKSATTTVMNPKFAES
modifications: also: phospho-threonine at 758
notes: integrin β2 cytoplasmic tail, residues 724-769 of UniProt P05107; T758 is phospho-threonine; also called long β2 phospho-peptide; source: synthetic peptide

Further lines, the molecule ahead of its results:

Molecule: paxillin: construct of the N-terminal region of paxillin (residues 1–323) that included all LD motifs
binding to 14-3-3-ζ by ITC, in words (14-3-3-ζ [1]): no pairwise interaction was detected by ITC

Molecule: GS KLLMIIHDRREFAKFEKEKMNAKWDTQENPIYKSPINNFKNPNYGRKAGL (GSKLLMIIHDRREFAKFEKEKMNAKWDTQENPIYKSPINNFKNPNYGRKAGL; left off: His10, N-terminal, cleaved) [β1D wt, recombinant β1D integrin tail, residues 752–801]
change of integrin tail resonances on addition of 14-3-3-ζ, in words (14-3-3-ζ [2]): interacts with 14-3-3-ζ in a very similar way to β1A

Molecule: KALIHLSDLREYRRFEKEKLKSQWNNDNPLFKSA[pT]TTVMNPKFAES [β2-45pT]
Kd (14-3-3-ζ [1]): 7.9 ± 3.1 µM

Molecule: paxillin residues 111–128: phosphorylated peptide containing a putative 14-3-3 binding motif, corresponding to paxillin residues 111–128 (VGEEEHVYSFPNKQKSAE; also: phosphorylated; UniProt P49023 111-128, looked up, fragment)
binding to 14-3-3-ζ by ITC, in words (14-3-3-ζ [1]): no interaction was detected by ITC

Molecule: GS RLSVEIYDRREYSRFEKEQQQLNWKQDSNPLYKSAITTTINPRFQEADSPTL (GSRLSVEIYDRREYSRFEKEQQQLNWKQDSNPLYKSAITTTINPRFQEADSPTL; left off: His10, N-terminal, cleaved) [β7 wt, recombinant β7 integrin tail, residues 747–798]
change of integrin tail resonances on addition of 14-3-3-ζ, in words (14-3-3-ζ [2]): intensity reduction for several resonances

Molecule: GPLGSKAGFFKRQYKDILQEENRRDSWSYINSKSNDD [α4 S1011D, recombinant α4 integrin tail phospho-mimetic, S1011D]
change of integrin tail resonances on addition of 14-3-3-ζ, in words (14-3-3-ζ [2]): significant decrease in α4 amide resonance intensities

Molecule: GSKLLMIIHDRREFAKFEKEKMNAKWDTGENPIYKSAVTTVVNPKYEGKC(fluorescein‑5‑maleimide) (domain or fragment) [fluorescein-labeled β1A integrin tail]
Kd (14-3-3-ζ [4]): 95 ± 16 µM

B3: α4 integrin cytoplasmic tail S1011D (domain or fragment, human (from the printed UniProt entry))
chain: GPLGSKAGFFKRQYKDILQEENRRDSWSYINSKSNDD
notes: residues from the cloning tag at the N-terminus; integrin α4 cytoplasmic tail, residues 1001-1032 of UniProt P13612, with S1011D; 15N-labelled for NMR, unlabelled for ITC; also called α4 S1011D; α4 phospho-mimetic; not shown: His10, N-terminal, cleaved
Kd (14-3-3-ζ [5]): ~60 µM

B6: α4 integrin cytoplasmic tail, wild type (domain or fragment, human (from the printed UniProt entry))
chain: B3 chain with D16S
notes: residues from the cloning tag at the N-terminus; integrin α4 cytoplasmic tail, residues 1001-1032 of UniProt P13612; 15N-labelled for NMR, unlabelled for ITC; also called α4 wt; full-length α4 integrin tail; not shown: His10, N-terminal, cleaved
binding result (14-3-3-ζ [6]): binds

From PMC4068353, “Characterization of 14-3-3-ζ Interactions with Integrin Tails” (Journal of Molecular Biology, 2013)
